IntAct's records for PubMed 22056771

B1: Autophagy-related protein 8 (Saccharomyces cerevisiae), P38182 (parent)
chain: MKSTFKSEYPFEKRKAESERIADRFKNRIPVICEKAEKSDIPEIDKRKYLVPADLTVGQFVYVIRKRIMLPPEKAIFIFVNDTLPPTAALMSAIYQEHKDKDGFLYVTYSGENTFGR
partner: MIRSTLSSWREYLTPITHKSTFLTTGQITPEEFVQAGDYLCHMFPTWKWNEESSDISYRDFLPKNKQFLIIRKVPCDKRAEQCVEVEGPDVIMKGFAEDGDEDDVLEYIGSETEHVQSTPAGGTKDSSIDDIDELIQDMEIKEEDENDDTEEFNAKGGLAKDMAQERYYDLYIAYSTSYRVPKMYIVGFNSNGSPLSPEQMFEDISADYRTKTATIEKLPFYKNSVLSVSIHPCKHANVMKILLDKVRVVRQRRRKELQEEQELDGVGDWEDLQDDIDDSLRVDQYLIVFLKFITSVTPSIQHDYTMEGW
B2: Ubiquitin-like modifier-activating enzyme ATG7 (Saccharomyces cerevisiae), P38862 (parent)
chain: MSSERVLSYAPAFKSFLDTSFFQELSRLKLDVLKLDSTCQPLTVNLDLHNIPKSADQVPLFLTNRSFEKHNNKRTNEVPLQGSIFNFNVLDEFKNLDKQLFLHQRALECWEDGIKDINKCVSFVIISFADLKKYRFYYWLGVPCFQRPSSTVLHVRPEPSLKGLFSKCQKWFDVNYSKWVCILDADDEIVNYDKCIIRKTKVLAIRDTSTMENVPSALTKNFLSVLQYDVPDLIDFKLLIIRQNEGSFALNATFASIDPQSSSSNPDMKVSGWERNVQGKLAPRVVDLSSLLDPLKIADQSVDLNLKLMKWRILPDLNLDIIKNTKVLLLGAGTLGCYVSRALIAWGVRKITFVDNGTVSYSNPVRQALYNFEDCGKPKAELAAASLKRIFPLMDATGVKLSIPMIGHKLVNEEAQHKDFDRLRALIKEHDIIFLLVDSRESRWLPSLLSNIENKTVINAALGFDSYLVMRHGNRDEQSSKQLGCYFCHDVVAPTDSLTDRTLDQMCTVTRPGVAMMASSLAVELMTSLLQTKYSGSETTVLGDIPHQIRGFLHNFSILKLETPAYEHCPACSPKVIEAFTDLGWEFVKKALEHPLYLEEISGLSVIKQEVERLGNDVFEWEDDESDEIA
partner: B1 chain
B3: Autophagy-related protein 8 (Saccharomyces cerevisiae), P38182 (parent)
chain: B1 chain
partner: B2 chain

Variants of: B1
Details: with atg3_yeast ATG3, P40344

| effect of a mutation on the interaction | Variant |
| --- | --- |
| disrupting interaction | Y62K |

Variants of: B2
Details: with atg8_yeast ATG8, P38182

| effect of a mutation on the interaction | Variant |
| --- | --- |
| decreasing interaction strength | E612Q |
| decreasing interaction strength | E612R |
| decreasing interaction strength | E612A |

Variants of: B3
Details: with atg7_yeast ATG7, P38862

| effect of a mutation on the interaction | Variant |
| --- | --- |
| disrupting interaction | Y62A;K66A |
| disrupting interaction strength | Y62K |
| disrupting interaction strength | Y62A |
| decreasing interaction strength | K66A |
| decreasing interaction strength | K66E |

Variants of: B3
Details: with atg7_yeast ATG7, P38862
Remark: another data set of the same source

| effect of a mutation on the interaction | Variant |
| --- | --- |
| disrupting interaction | Y62K |
